Assay results from PMC5927468.

Biological target: sorting nexin 9 (SNX9) (UniProt Q9Y5X1)
Assay: anti-eGFP nanobody pulldown, SNX9 immunoblot
Conditions: reference: Dyn1a wild type-eGFP; sites S774,S778

fold change: 3.6
Substance: dynamin-1 (Dyn1a) (from UniProt Q05193) Dyn1a S774/8A-eGFP
